Experimental data published in US12098176B2, “Keratin BD-4, preparation method, and pharmaceutical composition and use thereof” (Institute of Materia Medica, Chinese Academy of Medical …, priority 2019, dated 2024).

What was measured:
[1] = tested on: lipopolysaccharide (LPS) induced fever in rats; experiment: Lipopolysaccharide (LPS) induced fever in SD rats; assay type: in vivo, rat; conditions: for Body temperature 2 hours after modeling: 2 h after LPS 20 μg/kg i.p.; for Body temperature 4 hours after modeling: 4 h after LPS 20 μg/kg i.p.; for Body temperature 6 hours after modeling: 6 h after LPS 20 μg/kg i.p.; for Body temperature 8 hours after modeling: 8 h after LPS 20 μg/kg i.p.
Protocol: Experimental example 2 The pharmacodynamic test of protein BD-4 (Example 4 protein) on lipopolysaccharide (LPS) induced fever in SD rats.
Experiment Grouping: • Model group: lipopolysaccharide fever model; • Positive control group: Aspirin 300 mg/kg group, • Protein BD-4, 10 mg/kg group, 50 mg/kg group. Method: the method of intraperitoneal injection of Lipopolysaccharide to create fever model in rats.
Preparation of experimental animals: After the experimental animals adapt to the experimental environment (temperature 22° C.±2° C., relative humidity 50%±2%) for 1 day. Pre-adaptation to measure rectal temperature at 8:00 and 15:00, Rats were fasted and water was taken freely 12 h before experiment. before the experiment, let the animal to empty its feces before measuring the rectal temperature. Apply petroleum jelly to the electronic thermometer probe before each temperature measurement. Insert the rat rectum 2 cm (can be marked at 2 cm to ensure that the depth of each insertion is consistent), and record the body temperature after the reading is stable.
Intraperitoneal injection of lipopolysaccharide to replicate rat fever model: The body temperature of the rats was measured before modeling. Qualified rats with a body temperature of 36.2-37.3° C. were selected and randomly divided into groups with 8 rats in each group. After oral administration of aspirin and different doses of protein BD-4, lipopolysaccharide (20 μg/kg, 2 ml/kg) was injected intraperitoneally immediately, and the normal control group was injected intraperitoneally with an equal volume of normal saline. the rats' body temperature was monitored after 2 hours for a total of 8 hours.
According to the body temperature measured at each time point on the day of the experiment, calculate the mean, standard deviation and standard error of the body temperature of each group of rats. The data of each group was compared with TTEST, and P<0.05 was considered as a significant difference.

[2] = tested on: acetic acid writhing of ICR mice; experiment: Acetic acid writhing test in ICR mice; assay type: in vivo, mouse; conditions: for Number of twists / Writhing latency: 0.6% acetic acid i.p., within 15 minutes
Protocol: Experimental example 7 The pharmacodynamic test of protein BD-4 (Example 4 protein) on acetic acid writhing in ICR mice. Animals: male ICR mice; Drugs and reagents: aspirin, physiological saline, glacial acetic acid, protein BD-4. Experiment Grouping:
One day after the experimental animals adapt to the environment, Aspirin 300 mg/kg, protein BD-4 50 mg/kg, 200 mg/kg were given orally one hour in advance, and the administration volume was 10 ml/kg; Then, 0.6% acetic acid solution was injected into the abdominal cavity, and the latency period (seconds) and frequency of writhing in the animal was observed within 15 minutes.
Calculate the mean and standard error of the data in each group. Compared with the model group by TTEST, P<0.05 was considered as statistically different.
0.6% acetic acid solution was injected into the abdominal cavity of mice, which caused deep and large area and long-term painful stimulation, causing the mice to writhe (the abdomen was contracted into an “S” shape, the trunk and hind legs were stretched, the buttocks were raised and the hips Row). The incubation time and the number of times the mice began to writhe were used as the pain response index to determine whether the test sample had analgesic effect. […] Compared with the model group, P<0.05, which is statistically significant.

[3] = tested on: PTZ-induced epilepsy in mice; experiment: Pentylenetetrazole (PTZ) induced epilepsy in mice; assay type: in vivo, mouse; conditions: for Grade IV seizure rate / mortality rate: 10 mice; for Grade IV seizure rate / mortality rate / Number of deaths / Number of Grade IV cases: PTZ 65 mg/kg i.p.; for Number of deaths / Number of Grade IV cases: of 10 mice; for Number of Grade IV cases: 15 min observation; for Level III onset latency / Grade IV onset latency: mean ± SEM; for Grade IV onset latency: no grade IV attack recorded as 900 s
Protocol: Experiment Grouping: • Model group; • Retigabine 60 mg/kg group; • Protein BD-4, 50 mg/kg group, 200 mg/kg group; Method: Model Preparation and Administration:
Administer once in the afternoon the day before modeling, On the day of modeling, intraperitoneal injection of PTZ-65 mg/kg (modeling agent) 1 hour after gavage of the test drug, the positive drug can be administered once half an hour before modeling. Continue to observe for 15 minutes after injection of PTZ.
Observation index: 1) Seizure condition: Onset time of grade III to grade VI; 2) Death situation
Onset level: Refer to Racine grading standard: Level 0: No response; Grade I: manifested as twitching of facial muscles or the corners of the mouth; Level II: Can nod; Grade III: twitching of one limb; Grade IV: Rigidity or body twitching; Grade V: Generalized epilepsy (Generalized tonic seizures).
Count the number of seizures and deaths in each group of mice in the experiment; Level III and IV incubation period. The incubation period of mice that have not attacked to grade IV is recorded as the maximum of 900 seconds. Chi-square test was used for statistics of the number of cases. Calculate the mean and standard error of the incubation period. Use TTEST to compare the model group with other groups, and P<0.05 is considered as a significant difference.

[4] = tested on: phenol red excretion in mice; experiment: Expectorant test, phenol red excretion method in mice; assay type: in vivo, mouse; conditions: for Phenol red excretion: X ± SEM
Protocol: Experimental example 5 The pharmacodynamic test of protein BD-4 (Example 4 protein) on the expectorant of phenol red excretion method in mice.
• Solvent control group; • Mucosultan 30 mg/kg group; • Protein BD-4, 20 mg/kg group, 50 mg/kg group. Method: Model Preparation and Administration:
The animals were fasted and watered 16 hours before the experiment. Orally administered Mucosultan and different doses of protein BD-4 (administration volume 10 ml/kg) in groups, and the solvent control group was given the same volume of distilled water. One hour later, 2.5% phenol red solution was injected intraperitoneally, Kill the mouse by removing the neck after 30 minutes. Take the trachea from below the thyroid cartilage to the branch of the trachea. Put the trachea into 3 ml 5% NaHCO3 solution and let it stand for 3 hours. Take 1 ml of the supernatant and centrifuge at 3000 rpm for 5 minutes. Measure and record the absorbance at 546 nm. According to the standard curve of phenol red, the excretion of phenol red was calculated.
Record the time point of oral administration, the time point of intraperitoneal injection of 2.5% phenol red solution, and the time point of tracheal extraction respectively; The absorbance of each group of samples was measured by the microplate reader at 546 nm, Calculate the excretion of phenol red according to the standard curve of phenol red. Calculate the mean and standard error of the data in each group, use TTEST to compare the solvent control group with other groups, and P<0.05 is considered as a significant difference.

B1: BD-4: recombinant keratin, amino acid sequence SEQ ID NO: 1, expressed in E. coli; the protein of Example 4 was tested (protein, listed as Bos taurus)
chain: MSYSCCLPNLSFRSSCSSRPCVPSSCCGTTLPGACNIPANVGSCNWFCEGSFNGSEKETMQFLNDRLASYLEKVRQLERDNAELESRILERSQQQEPLVCPNYQSYFRTIEELQQKILCSKSENARLVVQIDNAKLASDDFRTKYETEVSLRQLVEADLNGLRRILDELTLCKSDLEARVESLKEELICLKQNHEQEVNTLRSQLGDRLNVEVDAAPTVDLNRVLNETRAQYEALVETNRRDVEEWYIRQTEELNKQVVSSSEQLQSYQAEIIELRRTVNALEVELQAQHNLRDSLENTLTETEARYSCQLAQVQGLIGNVESQLAEIRSDLERQNQEYQVLLDVRARLECEINTYRGLLDSEDCKLPCNPCATTNACERPCISNPCVSRARCGPCNTFVH
Effect on body temperature of model rats ([1]; 10 mg/kg and 50 mg/kg, after modeling): tendency to lower the body temperature of model rats after modeling, but it is not statistically significant | Body temperature 2 hours after modeling ([1]; 10 mg/kg oral): 37.7 ± 0.1 °C | Body temperature 4 hours after modeling ([1]; 10 mg/kg oral): 37.8 ± 0.l | Body temperature 6 hours after modeling ([1]; 10 mg/kg oral): 37.8 ± 0.2 °C | Body temperature 8 hours after modeling ([1]; 10 mg/kg oral): 37.5 ± 0.2 °C | Body temperature 2 hours after modeling ([1]; 50 mg/kg oral): 37.6 ± 0.2 °C | Body temperature 4 hours after modeling ([1]; 50 mg/kg oral): 37.7 ± 0.2 °C | Body temperature 6 hours after modeling ([1]; 50 mg/kg oral): 37.6 ± 0.2 °C | Body temperature 8 hours after modeling ([1]; 50 mg/kg oral): 37.5 ± 0.1 °C | Number of twists ([2]; 50 mg/kg oral): 16.9 ± 3.7 times | Writhing latency ([2]; 50 mg/kg oral): 315.2 ± 66.3 s | Number of writhing times vs model group ([2]; 50 mg/kg, P<0.05): significantly reduce the number of writhing times | Number of twists ([2]; 200 mg/kg oral): 25.1 ± 3.3 times | Writhing latency ([2]; 200 mg/kg oral): 220.1 ± 16.6 s | Epilepsy grade III incubation period, comparison with model group ([3]; 50 mg/kg): statistically different from the model group | Grade IV seizure rate ([3]; 50 mg/kg gavage): 80% | mortality rate ([3]; 50 mg/kg gavage): 10% | Number of deaths ([3]; 50 mg/kg gavage): 1 | Number of Grade IV cases ([3]; 50 mg/kg gavage): 8 | Level III onset latency ([3]; 50 mg/kg): 91 ± 12 s | Grade IV onset latency ([3]; 50 mg/kg): 308 ± 103 s | Epilepsy grade III incubation period, comparison with model group ([3]; 200 mg/kg): statistically different from the model group | Grade IV seizure rate ([3]; 200 mg/kg gavage): 70% | mortality rate ([3]; 200 mg/kg gavage): 0 | Number of deaths ([3]; 200 mg/kg gavage): 0 | Number of Grade IV cases ([3]; 200 mg/kg gavage): 7 | Level III onset latency ([3]; 200 mg/kg): 89 ± 8 s | Grade IV onset latency ([3]; 200 mg/kg): 493 ± 113 s | Phenol red excretion ([4]; 20 mg/kg oral): 0.898 ± 0.076 µg/mL | Phenol red excretion vs solvent control group ([4]; 20 mg/kg, P<0.05): significantly increased | Phenol red excretion ([4]; 50 mg/kg oral): 0.775 ± 0.101 µg/mL
